Source: patent US20240376151A1, “STAPLED PEPTIDES AND METHODS THEREOF” (FOG PHARMACEUTICALS, INC., priority 2022, published 2024)

Target: T1, RNF31 PUB domain (Homo sapiens, UniProt Q96EP0)
T1 construct: MBP-TEV (N, cleaved yes); made in house; host or cells: E. coli BL21 (DE3) pLysS
T1 sequence (Q96EP0 1-179): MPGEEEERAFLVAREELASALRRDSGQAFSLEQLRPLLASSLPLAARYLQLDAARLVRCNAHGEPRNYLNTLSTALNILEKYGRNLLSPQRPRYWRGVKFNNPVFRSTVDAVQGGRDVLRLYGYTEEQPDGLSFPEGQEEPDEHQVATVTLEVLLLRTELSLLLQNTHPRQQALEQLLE
Test: Phage Library Screening with NGS, RNF31 PUB domain
Format: binding
Details: for Phage library screen NGS readout, Target Concentration 10 / Phage library screen NGS readout, Target Concentration 30 / Phage library screen NGS readout, Target Concentration 100 / Phage library screen NGS readout, Target Concentration 300 / Phage library screen NGS readout, Target Concentration 1000: RNF31 PUB domain clusters C41-C45; for Phage library screen NGS readout, BLANK: clusters C41-C45

[1] = target concentration 1000, first column
[2] = target concentration 1000, second column

Row | Sequence | Phage library screen NGS readout, Target Concentration 10 | Phage library screen NGS readout, Target Concentration 30 | Phage library screen NGS readout, Target Concentration 100 | Phage library screen NGS readout, Target Concentration 300 | Phage library screen NGS readout, Target Concentration 1000 [1] | Phage library screen NGS readout, Target Concentration 1000 [2] | Phage library screen NGS readout, BLANK (column 1 of 5) | Phage library screen NGS readout, BLANK (column 2 of 5) | Phage library screen NGS readout, BLANK (column 3 of 5) | Phage library screen NGS readout, BLANK (column 4 of 5) | Phage library screen NGS readout, BLANK (column 5 of 5)
1 | DPASEWCLDAAVLCTYS | 0 | 0 | 3 | 18 | 63 | 65 | 2 | 0 | 0 | 0 | 0
2 | DPAFTDCQLAAAVCMTY | 0 | 0 | 3 | 31 | 161 | 145 | 1 | 2 | 0 | 0 | 0
3 | DPAIYQCSLAADICSTY | 1 | 3 | 3 | 3 | 7 | 8 | 2 | 2 | 0 | 0 | 0
4 | DPAYDWCLYAAYQCDQN | 0 | 0 | 0 | 6 | 13 | 40 | 0 | 0 | 0 | 0 | 0
5 | DPADWDCMYAAQDCFED | 0 | 0 | 1 | 1 | 11 | 1 | 0 | 0 | 0 | 0 | 0
6 | DPAADDCEWAALYCSFH | 2 | 0 | 0 | 3 | 3 | 8 | 2 | 9 | 0 | 2 | 3
7 | DPATEACFDAAIECTYY | 0 | 0 | 0 | 2 | 7 | 5 | 0 | 0 | 0 | 0 | 0
8 | DPAHTWCMYAAFDCFES | 1 | 0 | 0 | 1 | 9 | 4 | 1 | 2 | 2 | 0 | 0
9 | DPALVTCTWAAIYCDDF | 1 | 1 | 2 | 1 | 4 | 10 | 0 | 1 | 0 | 2 | 0

Continued, values first:

Row | Phage library screen NGS readout, Target Concentration 10 | Phage library screen NGS readout, Target Concentration 30 | Phage library screen NGS readout, Target Concentration 100 | Phage library screen NGS readout, Target Concentration 300 | Phage library screen NGS readout, Target Concentration 1000 [1] | Phage library screen NGS readout, Target Concentration 1000 [2] | Phage library screen NGS readout, BLANK (column 1 of 5) | Phage library screen NGS readout, BLANK (column 2 of 5) | Phage library screen NGS readout, BLANK (column 3 of 5) | Phage library screen NGS readout, BLANK (column 4 of 5) | Phage library screen NGS readout, BLANK (column 5 of 5) | Sequence
10 | 0 | 0 | 1 | 2 | 15 | 8 | 0 | 0 | 0 | 0 | 0 | DPAHDWCLYAAYDCRVY
11 | 0 | 0 | 0 | 3 | 5 | 12 | 0 | 3 | 0 | 0 | 0 | DPALDYCLYAAYDCMYA
12 | 0 | 0 | 0 | 13 | 49 | 33 | 1 | 0 | 0 | 0 | 0 | DPAHANCQLAADVCSTY
13 | 1 | 0 | 0 | 0 | 6 | 6 | 0 | 0 | 0 | 1 | 0 | DPAWTDCDWAALYCEFQ
14 | 0 | 1 | 0 | 0 | 5 | 6 | 0 | 1 | 1 | 4 | 2 | DPAYTLCSWAAMYCDSM
